The record followed here is paper PMC10549244 (RSC Chemical Biology, 2023).

This series concerns the molecule itself. The series is described as follows: crystal structure.

B1: SonM, borosin α-N-methyltransferase (wild type) (enzyme, Shewanella oneidensis MR-1)
chain: MGSLVCVGTGLQLAGQISVLSRSYIEHADIVFSLLPDGFSQRWLTKLNPNVINLQQFYAQNGEVKNRRDTYEQMVNAILDAVRAGKKTVCALYGHPGVFACVSHMAITRAKAEGFSAKMEPGISAEACLWADLGIDPGNSGHQSFEASQFMFFNHVPDPTTHLLLWQIAIAGEHTLTQFHTSSDRLQILVEQLNQWYPLDHEVVIYEAANLPIQAPRIERLPLANLPQAHLMPISTLLIPPAKKLEYNYAILAKLGIGPEDLG
In the case of B1, the “stoichiometry N” value came out at 2.
